Reference: paper PMC8162069

B1: Tv-GAPDH (Trichoderma virens Gv29-8) (protein)
chain: MAPIKVGINGFGRIGRIVFRNAVEHPDIEVVAVNDPFIETTYAAYMLKYDSSHGLFKGDVEVDGKDLVVNGKKVRFYTERDPANIKWSETGADYIVESTGVFTTTEKAKAHLVGGAKKVIISAPSADAPMYVMGVNENDYNGSADVISNASCTTNCLAPLAKVINDNYGIVEGLMTTVHSYTATQKTVDGPSAKDWRGGRGAAQNIIPSSTGAAKAVGKVIPSLNGKLTGMSIRVPTANVSVVDLTVRLEKGATYAEITETIKKAADGPLKGVLAYTNDDVVSSDMLGNTNSSIFDIKAGISLNDNFVKLVSWYDNEWGYSRRVLDLLAHVAKVDASK
B2: HepG (Trichoderma virens Gv29-8; A201L) (protein)
chain: MVPKVGINGFGRIGRVVLRNALETGAVEVVALNDPFIEPHYAEYMFKYDSTHGRFKGDIKVDGKDLVIDGKRIKFYQERDPANIPWKDSGAEYIVESTGVFTTTEKASAHFKGGAKKVIISAPSADAPMYVMGVNEDTYAGANVISNASCTTNCLAPLAKTLNDKFTIVEGLMTAIHAYTASQKTVDGPSSKDWRGGRAALQNLIPSSTGAAKAVGKVIPELAGKVTGMSVRVPTVNVSLVDFTVRFAKDVTYDEVKAAIKEASEGPLKGILAYTEDDIVSTDILTDPHSSTFDAKAGIALNKNFVKVMSWYDNEYGYSRRVVDLIVFVSKKDAGQ
B3: HepG (Trichoderma virens Gv29-8) (protein)
chain: MVPKVGINGFGRIGRVVLRNALETGAVEVVALNDPFIEPHYAEYMFKYDSTHGRFKGDIKVDGKDLVIDGKRIKFYQERDPANIPWKDSGAEYIVESTGVFTTTEKASAHFKGGAKKVIISAPSADAPMYVMGVNEDTYAGANVISNASCTTNCLAPLAKTLNDKFTIVEGLMTAIHAYTASQKTVDGPSSKDWRGGRAAAQNLIPSSTGAAKAVGKVIPELAGKVTGMSVRVPTVNVSLVDFTVRFAKDVTYDEVKAAIKEASEGPLKGILAYTEDDIVSTDILTDPHSSTFDAKAGIALNKNFVKVMSWYDNEYGYSRRVVDLIVFVSKKDAGQ

Each protein was assayed on O=C[C@H](O)COP(=O)(O)O (assay: purified protein). Details: without HA.
Type: biochemical, Trichoderma virens

In order of rising Km:
1. B2  260 ± 50 µM
2. B3  280 ± 50 µM
3. B1  1100 ± 200 µM

In order of falling kcat:
1. B1  115 ± 21.7 s⁻¹
2. B3  41.7 ± 6.67 s⁻¹
3. B2  21.7 ± 3.33 s⁻¹

In order of rising kcat/Km:
1. B2  83300 M⁻¹ s⁻¹
2. B1  105000 M⁻¹ s⁻¹
3. B3  148000 M⁻¹ s⁻¹
